Test results reported in paper PMC9352930.

Assays:
[1] = molecular target: EWEnH fusion protein (EWE fused to FH CCP2-4) (human); assay: BLI; kinetics: EWE, EWEµH or EWEnH held on anti-penta his (His1K) biosensors, dilution series of C3b or iC3b; 20 mM HEPES pH 7.5, 150 mM NaCl, 30°C; 1:1 model
[2] = molecular target: EWEµH fusion protein (EWE fused to FH CCP2-4 and CCP19-20) (human); assay: as above

Row | Substance | Kd [1] [nM] | Kd [2] [nM]
1 | C3b (proteolytic fragment of complement component C3) (from UniProt P01024 749-1663; P01024 749-1663) (domain or fragment) | 8.9 | 0.4
2 | iC3b (domain or fragment) | 7.1 | 2.9
